The source of these data is the supplement of paper PMC12042874.

± gives the uncertainty stated by the source.

The data set in a line: amyloid nucleation score (Sup35N fusion, yeast selection) (log enrichment); library NNK2; higher = more nucleation; inactive = no reads after selection. In outline: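 DiMSum was used to calculate nucleation scores as log enrichment of output over input reads, centred on the mode score of non-aggregating sequences. Sequences with fewer than 100 input reads were not scored. Input and output came from Illumina sequencing of plasmid inserts in psi-negative yeast expressing peptides of 20 random codons fused to Sup35N, induced 24 hours with 100 μM copper sulfate and then grown 7 days at 30°C on medium lacking adenine and uracil.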
Substance KRVGTYEVKI registered an amyloid nucleation score of -0.253 ± 0.55.
The substance KRWQVLFDRSRKYCRVGKT had an amyloid nucleation score of 0.161 ± 0.56.
The result for KSDTMLRDYKKWVGHELYTR reads 0.066 ± 0.54.
With KSGLTQLLQILSSCLELGIW the figure was 0.38 ± 0.51; with KSLYIGSAY, 1 ± 0.42; with KSQRKVIGTLLKVYWPWGCM, 0.654 ± 0.25.
The result for KSTVIMSDTFLR reads -0.271 ± 1; that for KSVRIWPSVSAGTRRLKQS, “inactive”.
Regarding KTDRLTKGTATFKRMTEI, the amyloid nucleation score result is “inactive”.
For the substance KTFLVDSLCNRL, the amyloid nucleation score result is “inactive”.
KTFRCRRCGNN: the amyloid nucleation score was determined as 0.721 ± 0.6.
KTLFINLHSCCANVGYAVRW gave an amyloid nucleation score of 4.87 ± 0.058.
The result for KTNSIPYSMVS reads -0.113 ± 1.1.
As for KTTHDCGSAHVGL, the amyloid nucleation score was -0.504 ± 0.63.
With KVAFKIALKSSTIWFIDS the figure was 2.47 ± 0.13.
With KVANRYIK the figure was 0.136 ± 0.32; with KVFSPHRNWWVI, 0.553 ± 0.57; with KVLLMTRT, -0.113 ± 0.45.
With KVSSLNCCVRCLDTMCAFQV the figure was 6.15 ± 0.088; with KWFSIMRPVRLVRFHWTGSN, 3.63 ± 0.089.
In the case of KWPHRYINTLVPLLIRWTYR, the amyloid nucleation score is -0.421 ± 0.37.
With KWRAFYPSTGSLRVEILSF the figure was -1.22 ± 1.1; with KWSFF, 4.34 ± 0.081.
The result for KWYKVVNMALALISMWSQAW reads -0.701 ± 0.63; that for KYEIRAASARGGSNVCFCIG, 0.691 ± 0.19; that for KYNQPIMNSSSRGADCGCVR, 4.16 ± 0.07.
With KYNSCSYEGSRRILFSGACR the figure was -0.699 ± 0.45; with KYVFGKTYPRY, “inactive”; with LAALR, 0.159 ± 0.3.
As to LAGGCRRTPAVINRLFVKTA, the amyloid nucleation score stood at 0.374 ± 0.4.
Turning to LAGNKYPWLS, the amyloid nucleation score is -1.1 ± 0.53.
In turn, LAHGPWGVSGDSV had an amyloid nucleation score of 0.019 ± 1.1.
With LAIDIMPFPCDTLS the figure was -0.289 ± 0.26; with LAKFYLWCSGYMHSS, 0.214 ± 0.65; with LAKHTGRAGKRCKDMP, -0.069 ± 0.31.
Consider LALCREWVTAGSGSFYLDGP, for which the amyloid nucleation score is -0.06 ± 1.1.
With LALIMTFLQPGERLRGSVAI the entry was “inactive”; with LALMS, -0.324 ± 0.61; with LANYYFYYKDDVWQVMLWCT, -1.15 ± 0.36.
As to LARGCFAFN, the amyloid nucleation score was -0.363 ± 1.
Consider LATNNVS, for which the amyloid nucleation score was 0.979 ± 0.67.
LATTVYFGAMGHVS: the amyloid nucleation score is -1.38 ± 1.
The result for LATWLP reads 0.871 ± 0.21; that for LAVHYHILRERTALCLGDHQ, -0.127 ± 1.1; that for LAVIGVSRGMGL, 0.716 ± 0.25.
The substance LAVLGVVDNIV registered an amyloid nucleation score of 0.516 ± 0.4.
In turn, LAVVTCHCSSTCCSYLLNVG displayed an amyloid nucleation score of 3.38 ± 0.06.
With LAYPMISVFYHELIIDLRSM the figure was 3.92 ± 0.11; with LAYRKVLCMYSVSHSYTRAC, “inactive”.
The result for LCFATYVGTGCVLGLPGYHK reads 4.59 ± 0.066; that for LCHYGCMVRESNLEYCPSME, 0.381 ± 0.48.
LCIDHYVDEMPSIRVVDFYF: the amyloid nucleation score stood at 0.741 ± 0.6.
LCINN showed an amyloid nucleation score of -1.99 ± 1.1.
The result for LCLDIMFVSNI reads -0.696 ± 1; that for LCNGLFTFMEASSGRHAPQF, 0.138 ± 0.76.
With LCNNKAYNDKLSPEPLAISR the figure was -0.578 ± 0.39; with LCPLTHFFVFEVYFSDPYRE, 5.69 ± 0.075; with LCSLDSMPHSYITCSAKRLI, -0.443 ± 0.3.
For LCSMEIWRMRRMMQS, the amyloid nucleation score was determined as 0.154 ± 0.34.
The result for LCVYLYWF reads -1.01 ± 0.39; that for LCWLATRVLSSNDSLYENME, 3.65 ± 0.071.
The result for LCYMGRVA reads 0.224 ± 0.34; that for LDCLRFTDFILIISKFVPVL, 0.026 ± 1.1; that for LDFHPVCRGMSSPCQCASMR, 0.907 ± 0.2.
The result for LDKKVSVSAVRLTRRDASEE reads 2.25 ± 0.098; that for LDSSMSTGNLRLCFFESICS, 0.232 ± 0.56.
LDYDKNKFWAQHLYSKQSSL yielded an amyloid nucleation score of 0.805 ± 0.23.
LDYRWKTGGSLWGG returned an amyloid nucleation score of -0.578 ± 1.1.
LEAFWKVKSCSVRTGVYGID showed an amyloid nucleation score of -0.555 ± 0.79.
The result for LERLVSALLHTIRFRRMVVH reads “inactive”; that for LESHLVMRYS, -0.307 ± 0.48; that for LEVKEVSEFLRLTYMYL, -1.67 ± 0.62.
LFAIKTGQDHCNTRLKKSQC yielded an amyloid nucleation score of -0.087 ± 0.76.
LFCSRQSTWPRDKGVFPWTI displayed an amyloid nucleation score of -0.916 ± 1.1.
The result for LFCTRMEVSLLGFWNSYAEL reads -0.01 ± 0.45; that for LFDFGETVVIVLHVHSMLCL, 4.41 ± 0.092.
With LFERFWFIL the figure was 0.187 ± 0.23; with LFFSATKTCSWSLKECAKR, -0.243 ± 1.1.
LFGLNFNLSNNLFMFFSYTQ had an amyloid nucleation score of 3.46 ± 0.082.
Take LFLGLFKLCNLASFMLWSWF: the amyloid nucleation score was -0.627 ± 1.
In turn, LFNGECGICDQEKYLVRQTV gave an amyloid nucleation score of 0.065 ± 1.1.
Consider LFNLKMSPSQRKNGLPVLTI, for which the amyloid nucleation score entry was “inactive”.
LFSCGKSMQLVMWYGLSFCG returned an amyloid nucleation score of 0.306 ± 0.37.
In the case of LFSLPPCFN, the amyloid nucleation score is 1.5 ± 0.11.
The result for LFVCMTLGYSLGKSHFDNGS reads 4.1 ± 0.044.
LFVIWNTCVNYFLDVLSGHN displayed an amyloid nucleation score of 3.86 ± 0.12.
As to LFVLLSDKTHSYSYAECQPM, the amyloid nucleation score is 3.65 ± 0.052.
With LFVYWV the figure was 0.126 ± 0.38; with LGFAGSVGICDRKTLDRREC, 4.91 ± 0.064; with LGFDASLKLFLVQQGLSN, -0.341 ± 0.33.
Take LGIYIVGTNVSSSWLFLCNR: the amyloid nucleation score is 0.476 ± 0.4.
With LGKFFNNPLLFGFY the entry was “inactive”.
Substance LGLCEVNMFNIRHFTLRSCY came in with an amyloid nucleation score of 0.219 ± 1.
On to LGLLCTVEIHYLGNMYIHRP, for which the amyloid nucleation score stood at 7.043 ± 0.045.
With LGLTSHTVPKCRCVGLMLMV the figure was 0.438 ± 0.29.
In the case of LGMCRGLRLIMMDWFGSDKM, the amyloid nucleation score amounted to 2.35 ± 0.075.
With LGSLDPKRHLYI the figure was -0.784 ± 1.1; with LGSLDSVFNSFHRAGS, -0.518 ± 0.56; with LGTAKNFIPSGNVRLLALQF, “inactive”.
The result for LGTNMAMVGSN reads -0.623 ± 0.27; that for LGVMRIVHVGLWSAR, -0.249 ± 0.55.
For LGWRVGWYASDAFYKPEWFD, the amyloid nucleation score is -0.53 ± 0.41.
In turn, LGYTSFYSFILKEGMFTAMG showed an amyloid nucleation score of 0.434 ± 0.27.
The result for LHAGPDKSA reads 0.068 ± 0.46.
In turn, LHIRVLSQVRLCDDWRASAS yielded an amyloid nucleation score of -0.016 ± 0.33.
For the substance LHMECLKDKSCNNSSADVRG, the amyloid nucleation score is 0.374 ± 0.62.
LIADLQKFSYVSWAGCMTY yielded an amyloid nucleation score of 4.4 ± 0.085.
With LIICSAPCCVTTWQQLRTMQ the figure was 4.15 ± 0.047; with LIIVMTLPYFGTSAM, 0.362 ± 0.3; with LILGLRGPLPCMLHNSGTYL, 0.19 ± 1.1.
With LILGYFRKELFKNASFVLNF the figure was 4.05 ± 0.066.
LILLY gave an amyloid nucleation score of -0.277 ± 1.
With LILRCLC the figure was 0.235 ± 0.8.
The substance LITQKHFTRVTNMPIRLCSL displayed an amyloid nucleation score of -0.491 ± 0.41.
With LIVVKCLSRRYCFCLLSVVV the figure was 0.303 ± 0.32; with LIYITVGRLQHGALCFLGKC, 0.148 ± 1; with LKAWYYSVYSRTVTYSPMLH, -1.03 ± 0.61.
With LKCHVLGVHCAL the figure was 0.205 ± 0.19; with LKCPGLTREGLSPYKSSLPN, -0.202 ± 1; with LKEHYF, -1.44 ± 0.55.
LKGQYWVLRKGGCEGGLSAG registered an amyloid nucleation score of 1.81 ± 0.45.
The substance LKLYDKAR had an amyloid nucleation score of 0.213 ± 0.55.
The result for LKMGVGCRGRLLWCSLTCMR reads 1.46 ± 0.31; that for LKNKSPCSR, 0.039 ± 0.29.
With LKNNNQETGIEFYIFREHRD the figure was 4.22 ± 0.047.
The result for LKRRPFDAFNVRMVLVNECG reads “inactive”.
As to LKSDRSLMLIEPALDLIWYF, the amyloid nucleation score is -0.27 ± 1.1.
The substance LKSEALDGAADCRGCYSGPL came in with an amyloid nucleation score of 0.374 ± 0.64.
With LKSKVTLSYYSIVPAISVYE the entry was “inactive”.
The result for LKVAVLVSGLGLA reads 0.54 ± 0.46.
With LKYDSKPSRVWMEICLYDAR, the amyloid nucleation score is 7.192 ± 0.054.
The result for LLEFWDHLVYSMIECNRKNV reads “inactive”; that for LLFIICTDSFRLPTANGELY, -1.17 ± 0.41.
On to LLFLAG, for which the amyloid nucleation score is -0.358 ± 0.79.
Regarding LLFMSSNIFDMCREFDRC, the amyloid nucleation score result is “inactive”.
The result for LLFMVIFDRECRVIIHCGTM reads -0.21 ± 0.34; that for LLFQNLIRRLCSMCQFGGCV, -0.531 ± 0.46.
The result for LLFVCVFYVYSSPDNHILAM reads -0.633 ± 1.1; that for LLHSSYIIK, 0.115 ± 1.
Substance LLIFGVVLRVMNVVDPIRDI came in with an amyloid nucleation score of -1.13 ± 0.55.
